Source: patent US20210130452A1 (Merck KGaA, published 2021)

T1: human IL-17F (human, UniProt Q96PD4 31-163)
T1 construct: made in Hek293 cells (GenBank AF384857); also called hIL-17F; hIL17F
T1 sequence: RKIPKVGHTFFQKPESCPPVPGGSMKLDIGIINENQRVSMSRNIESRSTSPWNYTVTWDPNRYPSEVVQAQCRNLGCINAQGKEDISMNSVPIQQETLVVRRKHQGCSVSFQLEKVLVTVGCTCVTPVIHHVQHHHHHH

T2: Cynomolgus monkey IL-17F (Cynomolgus monkey, UniProt G7P4V0 31-163)
T2 construct: also called cyno IL-17F; cIL-17F
T2 sequence: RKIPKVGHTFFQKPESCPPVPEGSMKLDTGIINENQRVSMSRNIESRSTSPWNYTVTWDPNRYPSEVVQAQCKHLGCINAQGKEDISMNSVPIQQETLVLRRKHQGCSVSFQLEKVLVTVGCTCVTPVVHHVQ

T3: marmoset IL-17A (marmoset, IL-17A is a disulfide-linked homodimer. One chain is given.)
T3 chain: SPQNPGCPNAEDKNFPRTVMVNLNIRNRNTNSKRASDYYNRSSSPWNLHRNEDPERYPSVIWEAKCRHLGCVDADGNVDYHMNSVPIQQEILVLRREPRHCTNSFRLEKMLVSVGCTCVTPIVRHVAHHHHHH

T4: human IL-17F (human, UniProt Q96PD4 31-163)
T4 construct: GenBank AF384857, expressed in Hek293 as 6-His C-terminal tagged protein; also called hIL-17F; IL-17F-6HIS
T4 sequence: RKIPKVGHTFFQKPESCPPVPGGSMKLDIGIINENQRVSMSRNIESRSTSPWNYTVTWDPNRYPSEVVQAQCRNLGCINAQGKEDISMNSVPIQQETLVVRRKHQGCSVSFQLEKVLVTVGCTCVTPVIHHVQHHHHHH

T5: marmoset IL-17F (marmoset, UniProt A6N6I9 31-163)
T5 sequence (looked up): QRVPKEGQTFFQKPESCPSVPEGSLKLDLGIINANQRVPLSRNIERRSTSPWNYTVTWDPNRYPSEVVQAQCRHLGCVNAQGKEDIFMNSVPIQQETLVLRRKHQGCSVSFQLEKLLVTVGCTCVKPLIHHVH

T6: mouse IL-17F (mouse, UniProt Q7TNI7 29-161)
T6 sequence (looked up): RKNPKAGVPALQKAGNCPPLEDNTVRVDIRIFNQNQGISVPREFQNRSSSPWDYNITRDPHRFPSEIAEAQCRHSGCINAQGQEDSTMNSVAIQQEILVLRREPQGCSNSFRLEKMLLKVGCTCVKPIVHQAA

T7: rat IL-17F (rat, UniProt Q5BJ95 29-161)
T7 sequence (looked up): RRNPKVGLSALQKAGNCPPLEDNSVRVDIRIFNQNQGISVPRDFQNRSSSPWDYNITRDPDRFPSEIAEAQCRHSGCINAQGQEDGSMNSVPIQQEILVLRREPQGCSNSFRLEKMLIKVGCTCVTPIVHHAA

T8: mouse IL-17A (mouse, UniProt Q62386 26-158)
T8 sequence (looked up): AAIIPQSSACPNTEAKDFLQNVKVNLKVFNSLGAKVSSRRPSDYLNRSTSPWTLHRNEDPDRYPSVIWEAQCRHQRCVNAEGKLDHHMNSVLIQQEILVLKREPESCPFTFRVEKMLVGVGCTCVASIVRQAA

T9: rat IL-17A (rat, UniProt Q61453 18-150, limits assumed)
T9 sequence (looked up): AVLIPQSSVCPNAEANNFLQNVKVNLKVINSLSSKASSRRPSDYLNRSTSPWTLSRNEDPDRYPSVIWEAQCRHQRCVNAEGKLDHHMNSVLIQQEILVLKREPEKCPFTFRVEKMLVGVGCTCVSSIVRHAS

B1: IL17MS3067 (VHH)
VHH: DVQLVESGGGLVQPGGSLRLSCAASGRASSINWMGWFRQAPGKEREFVAGIRWSDAYTEYADSVKGRFTISRDNSKNTVYLQMNSLRPEDTAVYYCVLDLSTVRYWGQGTLVTVSS
notes: variant of IL17MS13B03; Kabat numbering
B2: 16A04 (VHH)
VHH: EVQLVESGGGLVQAGGSLRLSCAASGRTFSSYVVGWFRQAPGKEREFIGAISGSGDSIYYAVSEKDRFTISRDNGKNTLYLQMSSLKAEDTAVYYCTADQEFGYLRFGRSEYWGQGTQVTVSS
notes: Class 3; also called IL17MS16A04
B3: 13B03 (VHH)
VHH: EVQLVESGGGSVQAGDSLRLSCAASGRANSINWFGWFRQTPGKEREFVAGIRWSDAYTEYANSVKGRFTISRDNAKNTVDLQMDSLKPEDTAVYYCVLDLSTVRYWGQGTQVTVSS
notes: Class 4; also called IL17MS13B03
B4: 13E02 (VHH)
VHH: EVQLVESGGGLVQAGGSLRLSCAASGRTYDAMGWLRQAPGKEREFVAAISGSGDDTYYADSVKGRFTISKDNAGITMYLQMNSLKPEDTAVYYCATRRGLYYVWDSNDYENWGQGTQVTVSS
notes: Class 4; also called IL17MS13E02

Tests used:
human IL-17A [1] = target: T10, human IL-17A (human, UniProt Q16552 24-155); experiment: SPR (Biacore) off-rate
T10 construct: secreted form made in Hek293 cells (GenBank U32659); also called hIL-17A; hIL17A
T10 sequence (Q16552 other isoform, or with tags, fused parts or gaps): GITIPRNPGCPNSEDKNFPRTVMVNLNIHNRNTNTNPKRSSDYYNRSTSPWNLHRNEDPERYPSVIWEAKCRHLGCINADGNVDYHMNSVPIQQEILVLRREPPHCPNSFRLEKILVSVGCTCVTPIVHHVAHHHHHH

human IL-17F [2] = target: T1, human IL-17F; experiment: SPR (Biacore) off-rate
[3] = target: T11, human IL-17A/F heterodimer (human, UniProt Q16552 24-155; Q96PD4 31-163, limits assumed); experiment: SPR (Biacore) off-rate
T11 construct: bought, made in E. coli (R&D Systems 5194-IL/CF); also called hIL-17A/F; hIL17A/F
T11 sequence (Q16552 24-155 limits assumed, one chain of several): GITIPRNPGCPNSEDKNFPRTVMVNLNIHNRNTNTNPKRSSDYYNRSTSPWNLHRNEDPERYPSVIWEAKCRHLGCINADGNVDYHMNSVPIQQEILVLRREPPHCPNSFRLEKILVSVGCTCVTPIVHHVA

Cynomolgus monkey IL-17A = target: T12, Cynomolgus monkey IL-17A (Cynomolgus monkey, UniProt A0A2K5TTB0 24-155); experiment: SPR (Biacore) off-rate
T12 construct: also called cyno IL-17A; cIL-17A
T12 sequence (A0A2K5TTB0 entry or part of it): as the sequence (Q16552 24-155 limits assumed, one chain of several) above, with T3A, P8S, N34S, I77V, N78K, P104R counted along it

Cynomolgus monkey IL-17F [4] = target: T2, Cynomolgus monkey IL-17F; experiment: SPR (Biacore) off-rate
human IL-17A [5] = target: T10, human IL-17A; experiment: cell-based or functional assay
human IL-17F [6] = target: T1, human IL-17F; experiment: cell-based or functional assay
[7] = target: T11, human IL-17A/F heterodimer; experiment: cell-based or functional assay
Cynomolgus monkey IL-17F [8] = target: T2, Cynomolgus monkey IL-17F; experiment: cell-based or functional assay
human IL-17A [9] = target: T10, human IL-17A; experiment: AlphaScreen hIL-17A-IL-17RA; vs IL17MS13B03
human IL-17F [10] = target: T1, human IL-17F; experiment: AlphaScreen hIL-17F-IL-17RC; vs IL17MS13B03
human IL-17A [11] = target: T13, human IL-17A (human, UniProt Q16552 24-155); experiment: ELISA, coated IL-17A
T13 construct: secreted form (GenBank U32659) expressed in Hek293 with C-terminal 6-His; also called hIL-17A; IL-17A-6HIS
T13 sequence (Q16552 other isoform, or with tags, fused parts or gaps): as the sequence (Q16552 other isoform, or with tags, fused parts or gaps) above
Protocol: (§1) Binding of a selected panel of anti-IL-17 Nanobodies to IL-17 of other species was assessed using a binding ELISA. […] HRP (horseradish peroxidase) conjugated anti-myc (Serotec, MCA 2200P) was used for detection using esTMB as substrate.

marmoset IL-17A = target: T3, marmoset IL-17A; experiment: ELISA, coated IL-17A
Protocol: as §1

guinea pig IL-17A = guinea pig IL-17A (guinea pig); experiment: ELISA, coated IL-17A
Protocol: as §1

human IL-17F [12] = target: T4, human IL-17F; experiment: ELISA, coated IL-17F;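 note: binding ELISA on coated antigen from various species, with bound Nanobodies revealed by an HRP-linked anti-myc antibody and esTMB substrate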
Protocol: as §1

marmoset IL-17F = target: T5, marmoset IL-17F; experiment: ELISA, coated IL-17F;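 note: binding ELISA on coated antigen from various species, with bound Nanobodies revealed by an HRP-linked anti-myc antibody and esTMB substrate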
Protocol: as §1

mouse IL-17F = target: T6, mouse IL-17F; experiment: ELISA, coated IL-17F;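 note: binding ELISA on coated antigen from various species, with bound Nanobodies revealed by an HRP-linked anti-myc antibody and esTMB substrate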
Protocol: as §1

rat IL-17F = target: T7, rat IL-17F; experiment: ELISA, coated IL-17F;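 note: binding ELISA on coated antigen from various species, with bound Nanobodies revealed by an HRP-linked anti-myc antibody and esTMB substrate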
Protocol: as §1

human IL-17F [13] = target: T4, human IL-17F; experiment: KinExA, 100 pM Nanobody
Protocol: The affinity of a limited set of formatted Nanobodies was determined using the KinExA.

human IL-17F [14] = target: T4, human IL-17F; experiment: SPR, IL-17F-Nanobody complex over captured IL-17RC
Description: (§2) The receptor (IL-17RA or IL-17RC) was captured via its human Fc-tail by an anti-human IgG-Fc antibody coated on the chip.

mouse IL-17A = target: T8, mouse IL-17A; experiment: ELISA, coated IL-17A
Protocol: as §1

rat IL-17A = target: T9, rat IL-17A; experiment: ELISA, coated IL-17A
Protocol: as §1

human IL-17A [15] = target: T13, human IL-17A; experiment: KinExA, 500 pM Nanobody
human IL-17F [16] = target: T4, human IL-17F; experiment: KinExA, 500 pM Nanobody
human IL-17A [17] = target: T13, human IL-17A; experiment: competition ELISA IL17A-RA
Protocol: (§3) To this end, IL-17RA, respectively IL-17RC was coated at a concentration of 1 μg/ml in PBS.

human IL-17F [18] = target: T4, human IL-17F; experiment: competition ELISA IL17F-RC
Protocol: as §3

human IL-17A [19] = target: T13, human IL-17A; experiment: SPR, IL-17A-Nanobody complex over captured IL-17RA
Description: as §2

| Binder | OD (human IL-17A [11]) [OD] | OD (marmoset IL-17A) [OD] | OD (guinea pig IL-17A) [OD] | OD (human IL-17F [12]) [OD] | OD (marmoset IL-17F) [OD] | OD (mouse IL-17F) [OD] | OD (rat IL-17F) [OD] | % Biacore binding (IL-17F-NB)-IL-17RC (human IL-17F [14]) [%] | OD (mouse IL-17A) [OD] | OD (rat IL-17A) [OD] | Kd (human IL-17A [15]) [nM] | Kd (human IL-17F [16]) [nM] | IC50 (human IL-17A [17]) [nM] | IC50 (human IL-17F [18]) [nM] | % Biacore binding (IL-17A-NB)-IL-17RA (human IL-17A [19]) [%] | also measured |
| --- | --- | --- | --- | --- | --- | --- | --- | --- | --- | --- | --- | --- | --- | --- | --- | --- |
| B1 |  |  |  |  |  |  |  |  |  |  |  |  |  |  |  | koff (human IL-17A [1]): 0.000133 s⁻¹; koff (human IL-17F [2]): 0.00138 s⁻¹; koff [3]: 0.000183 s⁻¹; koff (Cynomolgus monkey IL-17A): 0.000126 s⁻¹; koff (Cynomolgus monkey IL-17F [4]): 0.00166 s⁻¹; IC50 cell based assay hIL17A (human IL-17A [5]): 0.7 nM; IC50 cell based assay hIL17F (human IL-17F [6]): 35 nM; IC50 cell based assay hIL17A/F [7]: 1.8 nM; IC50 cell based assay cyno IL17F (Cynomolgus monkey IL-17F [8]): 13 nM; IC50 fold difference compared to WT (human IL-17A [9]): 1.3 fold; IC50 fold difference compared to WT (human IL-17F [10]): 0.2 fold |
| B2 | 0.043 | 0.019 | 0.008 | 1.74 | 1.64 | -0.0015 | 0.0015 | 4.84 |  |  |  |  |  |  |  | Kd (human IL-17F [13]): 0.0194 nM |
| B3 | 1.95 | 1.94 | 0.004 | 1.66 | 1.33 | -0.0005 | 0.0085 | 15.7 | -0.001 | 0.004 | 0.0225 | 4.91 | 0.121 | 91.6 | -2.24 |  |
| B4 | 1.79 | 1.85 | 0.006 | 1.1 | 0.248 | 0.0155 | 0.0255 | 7.17 | -0.001 | 0.003 | 0.0359 | 3.62 | 0.42 | 3.02 | -1.04 |  |
